Measured values: US20260356943 (published 2026)
Where a chain is given by its changes, count along the chain named.

Tests used:
[1] = target: human 4-1BB (human, UniProt Q07011); experiment: SPR, 25C
[2] = target: T1, human ROR1 (human, UniProt Q01973); experiment: ELISA, stored 4C
[3] = target: T1, human ROR1; experiment: ELISA, stored 37C 2 weeks
[4] = target: T1, human ROR1; experiment: ELISA, monkey serum 0 day
[5] = target: T1, human ROR1; experiment: ELISA, monkey serum 14 days
[6] = target: T1, human ROR1; experiment: ELISA, human serum 7 days
[7] = target: T1, human ROR1; experiment: ELISA, human serum 2 days
[8] = target: T1, human ROR1; experiment: ELISA, dual-antigen capture ROR1/4-1BB
[9] = target: T1, human ROR1; experiment: ELISA, monkey serum 7 days
[10] = target: T1, human ROR1; experiment: ELISA, human serum 14 days
[11] = target: T1, human ROR1; experiment: ELISA, monkey serum 2 days
[12] = target: T1, human ROR1; experiment: ELISA, human serum 0 day
[13] = target: T1, human ROR1; experiment: ELISA, stored 40C 2 weeks
[14] = target: T1, human ROR1; experiment: ELISA, stored 4C; remark: listed apart in the source
[15] = target: T2, human B7-H3 (human, UniProt Q5ZPR3); experiment: ELISA, stored 4C
T2 chain: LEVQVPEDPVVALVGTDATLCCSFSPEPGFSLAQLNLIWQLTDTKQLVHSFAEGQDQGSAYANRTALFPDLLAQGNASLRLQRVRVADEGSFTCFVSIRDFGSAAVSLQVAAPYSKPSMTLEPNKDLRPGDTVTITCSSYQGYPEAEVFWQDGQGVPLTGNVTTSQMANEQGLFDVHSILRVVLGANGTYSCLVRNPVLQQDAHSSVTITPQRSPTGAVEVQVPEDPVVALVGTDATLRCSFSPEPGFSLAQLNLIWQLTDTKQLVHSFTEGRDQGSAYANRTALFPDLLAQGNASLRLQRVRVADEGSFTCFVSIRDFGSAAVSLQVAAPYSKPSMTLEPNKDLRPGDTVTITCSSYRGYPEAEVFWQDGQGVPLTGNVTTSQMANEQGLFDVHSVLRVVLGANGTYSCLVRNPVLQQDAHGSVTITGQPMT

[16] = target: T2, human B7-H3; experiment: ELISA, stored 40C 2 weeks
[17] = target: T1, human ROR1; experiment: ELISA, monkey serum 3 days
[18] = target: T1, human ROR1; experiment: SPR, 25C, bivalent analyte
[19] = target: T1, human ROR1; experiment: ELISA, human serum 3 days

T1 sequence (Q01973 30-403): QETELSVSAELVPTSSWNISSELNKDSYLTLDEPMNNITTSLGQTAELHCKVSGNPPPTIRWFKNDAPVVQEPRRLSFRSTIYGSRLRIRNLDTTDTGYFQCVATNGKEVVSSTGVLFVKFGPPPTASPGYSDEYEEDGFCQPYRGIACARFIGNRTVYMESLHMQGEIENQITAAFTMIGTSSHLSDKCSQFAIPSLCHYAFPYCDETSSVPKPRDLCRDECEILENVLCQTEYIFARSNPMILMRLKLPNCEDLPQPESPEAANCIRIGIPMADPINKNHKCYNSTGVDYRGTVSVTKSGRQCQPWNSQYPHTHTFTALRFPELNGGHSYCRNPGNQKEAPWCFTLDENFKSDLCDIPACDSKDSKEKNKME
human 4-1BB, sequence (Q07011 24-186): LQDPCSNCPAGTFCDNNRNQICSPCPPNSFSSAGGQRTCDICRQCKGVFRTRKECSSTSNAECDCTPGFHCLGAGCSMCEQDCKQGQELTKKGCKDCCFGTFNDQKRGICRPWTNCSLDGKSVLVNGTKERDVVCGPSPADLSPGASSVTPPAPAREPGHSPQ

B1: BA6M11(WT)x1A10M12 4-1BB arm (antibody, V domains shown)
VH: EVQLLESGGGLVQPGGSLRLSCAASGFTFSSYDMSWVRQAPGKCLEWVSWISYSGGSIYYADSVKGRFTISRDNSKNTLYLQMNSLRAEDTAVYYCARDAQRNSMREFDYWGQGTLVTVSS
VL: QSVLTQPPSASGTPGQRVTISCSGSSSNIGNNYVTWYQQLPGTAPKLLIYADSHRPSGVPDRFSGSKSGTSASLAISGLRSEDEADYYCATWDYSLSGYVFGCGTKLTVL
How did the Kd [1] turn out when B1 was run?
The Kd was 4530 pM.

B2: BA6M11(NA)x1A10M12 4-1BB arm (antibody, V domains shown)
VH: B1 VH
VL: B1 VL
How did the Kd [1] turn out when B2 was run?
The Kd was 4500 pM.

B3: BA6M11 IgG (antibody, V domains shown)
VH: EVQLLESGGGLVQPGGSLRLSCAASGFTFSNYDMSWVRQAPGKGLEWVSAIYHSGSSKYYADSVKGRFTISRDNSKNTLYLQMNSLRAEDTAVYYCARGGSGAWDTGFDYWGQGTLVTVSS
VL: QSVLTQPPSASGTPGQRVTISCSGSSSNIGSNDVSWYQQLPGTAPKLLIYYENNRPSGVPDRFSGSKSGTSASLAISGLRSEDEADYYCGAWDDSLSGYVFGGGTKLTVL
Which results are given for B3?
EC50 [2]: 166 pM; EC50 [3]: 129 pM

B4: BA6 IgG (WT) (antibody, V domains shown)
VH: B3 VH with S101N
VL: B3 VL with E52D
Which EC50 [2] does the source give for B4 here?
The EC50 was 217 pM.

And the EC50 [3]?
Its EC50 is 261 pM.

B5: BA6x1A10M12 ROR1 arm (antibody, V domains shown)
VH: B3 VH with S101N
VL: B3 VL with E52D
For B5, which EC50 [4] is on record?
Its EC50 is 240 pM.

What about the EC50 [5] of the same binder?
Its EC50 is 419 pM.

What about the EC50 [6] of the same binder?
The EC50 was 420 pM.

And the EC50 [7]?
The EC50 was 365 pM.

What about the EC50 [8] of the same binder?
Its EC50 is 386 pM.

What about the EC50 [9] of the same binder?
Its EC50 is 427 pM.

And the EC50 [10]?
Its EC50 is 457 pM.

And the EC50 [11]?
The EC50 was 360 pM.

And the EC50 [12]?
Its EC50 is 228 pM.

B6: BA6xB5 ROR1 arm (antibody, V domains shown)
VH: B3 VH with S101N
VL: B3 VL with E52D
With B6 as the binder, how does the EC50 [13] read?
Its EC50 is 180 pM.

What about the EC50 [14] of the same binder?
Its EC50 is 141 pM.

B7: BA6M11xB5 B7-H3 arm (antibody, V domains shown)
VH: EVQLLESGGGLVQPGGSLRLSCAASGFTFSDYAMSWVRQAPGKCLEWVSSISSGSGSIYYADSVKGRFTISRDNSKNTLYLQMNSLRAEDTAVYYCAKNLIPLDYWGQGTLVTVSS
VL: B3 VL with D33A, E52N, N53S, N54H, A91S, D94A, S97N, G98A, G103C
B7 was tested. Which EC50 [15] did it give?
Its EC50 is 232 pM.

What about the EC50 [16] of the same binder?
The EC50 was 190 pM.

B8: BA6M11(NA)x1A10M12 ROR1 arm (antibody, V domains shown)
VH: B3 VH
VL: B3 VL
Which results are given for B8?
EC50 [4]: 208 pM; EC50 [17]: 238 pM; EC50 [5]: 273 pM; EC50 [6]: 236 pM; Kd [18]: 6650 pM; EC50 [8]: 268 pM; EC50 [9]: 257 pM; EC50 [10]: 233 pM; EC50 [19]: 220 pM; EC50 [12]: 211 pM

B9: BA6M11xB5 ROR1 arm (antibody, V domains shown)
VH: B3 VH
VL: B3 VL
For B9, which EC50 [13] is on record?
The EC50 was 134 pM.

And the EC50 [14]?
The EC50 was 152 pM.

B10: BA6xB5 B7-H3 arm (antibody, V domains shown)
VH: B7 VH
VL: B3 VL with D33A, E52N, N53S, N54H, A91S, D94A, S97N, G98A, G103C
B10 was tested. Which EC50 [15] did it give?
Its EC50 is 173 pM.

And the EC50 [16]?
Its EC50 is 186 pM.

B11: BA6M11(WT)x1A10M12 ROR1 arm (antibody, V domains shown)
VH: B3 VH
VL: B3 VL
B11 was tested. Which Kd [18] did it give?
Its Kd is 6050 pM.
